Reference: patent US9879094B2, “Nucleic acid molecules encoding for BACE1 antibodies” (Genentech, Inc., priority 2010, dated 2018)
Several values for one entry are separate records, joined by “and”; a condition that tells them apart may be missing. Equal values may be shown once. Entries after “also recorded” stand apart in the source; their conditions may differ.

How the values were obtained:
[1] = tested on: Aβ1-40 in wild-type mice; test: Wild-type mice, single IV dose, Aβ1-40 levels; assay type: in vivo, mouse; conditions: 50 mg/kg single IV
Description: The ability of anti-BACE1 antibodies YW412.8.31 to modulate amyloidogenic processing was also assessed in wild-type mice. Briefly, experiments were performed as described above. A single dose of control IgG antibody or YW412.8.31 anti-BACE1 antibody (50 mg/kg) was delivered systemically by intravenous (IV) injection to wild-type mice. After 24 or 48 hours, plasma and brain samples were harvested and Aβ1-40 levels were analyzed. The concentrations of total mouse Aβ1-40 in plasma and brain were determined using a sandwich ELISA following similar procedures described below for measuring total anti-BACE1 antibody concentrations. Briefly, rabbit polyclonal antibody specific for the C terminus of Aβ1-40 (Millipore, Bedford, Mass.) was coated onto plates, and biotinylated anti-mouse Aβ monoclonal antibody M3.2 (Covance, Dedham, Mass.) was used for detection. The assay had lower limit of quantification values of 1.96 pg/ml in plasma and 39.1 pg/g in brain. As is shown in FIG. 16, panel B, Plasma Aβ1-40 was reduced by 35% and cortical Aβ1-40 was reduced by 20%.

[2] = tested on: Aβ1-40 in wild-type C57Bl/6J mice; test: Wild-type C57Bl/6J mice, IP dosing, Aβ1-40 levels; assay type: in vivo, mouse
Description: Additional experiments with wild-type C57Bl/6J mice were performed in which 100 mg/kg of YW412.8.31, or a control IgG, was administered systemically. Levels of Aβ1-40 in both the plasma and forebrain of treated animals four hours after a single intraperitoneal (IP) injection were determined. Blood was collected from animals by cardiac puncture to isolate plasma.
Following PBS perfusion, the brain was harvested and forebrain from one hemibrain was prepared in PK buffer (1% NP-40 in PBS, with Roche complete protease inhibitors) whereas forebrain from the other hemibrain was homogenized in 5M GuHCL, 50 mM Tris pH 8.0, and further diluted in Casein Blocking Buffer (0.25% casein/0.05% sodium azide, 20 μg/ml aprotinin/5 mM EDTA, pH 8.0/10 μg/ml leupeptin in PBS) for Aβ1-40 analysis.
Additional experiments were performed in order to determine the effect of elevated brain antibody levels through repeated dosing. YW412.8.31 antibody, or control IgG, was administered at 30 or 100 mg/kg IP every 4 days for a total of 3 doses. In this study the levels of Aβ1-40 in both the plasma and forebrain of treated animals 4 hours post last dose were measured. Again, ˜50% reduction in plasma Aβ1-40 levels following multi-dosing at both 30 and 100 mg/kg was observed (FIG. 22, panel B). […] YW412.8.31 antibody concentrations in serum were 480±210 and 1500±440 μg/mL, and concentrations in brain were 0.9±0.6 μg/g (5.9±4.3 nM) and 3.0±1.6 μg/g (20±10 nM) following administration at 30 and 100 mg/kg given every 4 days, respectively.

[3] = Antibody concentration in monkey serum and CSF; assay type: in vivo, Cynomolgus monkey; conditions: 30 mg/kg IV
Description: Cynomolgus monkeys were dosed with control IgG or YW412.8.31 anti-BACE1 antibody (30 mg/kg) by IV delivery. Plasma and CSF were sampled up to 7 days prior to dosing to set mean baseline Aβ1-40 levels in each in individual animal, and then at various times after dosing. Total anti-BACE1 or control antibody concentrations in monkey serum and CSF samples were measured using monkey-adsorbed goat anti-human IgG polyclonal antibody (Bethyl, Montgomery, Tex.) as both coat and detection (FIG. 20). Free anti-BACE1 antibody concentrations in monkeys were determined using BACE1 ECD as coat and the monkey-adsorbed goat anti-human IgG antibody (Bethyl) for detection.

[4] = tested on: mouse cortical neurons; test: Antibody internalization in primary neurons; assay type: cell-based
Description: BACE1 is known to be expressed intracellularly, particularly in the Golgi. To ascertain whether or not YW412.8.31 interacts with BACE1 in an intracellular environment, internalization studies were performed. One set of neuronal cultures was prepared from E13.5 dorsal root ganglia (DRG) explants, and a second set of neuronal cultures was prepared from E16.5 dissociated cortical neurons from BACE1+/+ or BACE1−/− mice and cultured for 24 or 72 hours, respectively, at 37° C. Media containing 0.5 μM YW412.8.31 anti-BACE1 antibody was added to the cultures for time periods varying from 30 minutes to 2 hours, and incubated at either 4° C. or 37° C. Unbound antibody was washed out thoroughly with PBS after treatment. […] Bound antibody was detected using a secondary Alexa 568-conjugated anti-Human IgG1 antibody (Molecular Probes) according to the manufacturer's directions.
Additionally, mouse cortical neurons were cultured in the presence of YW412.8.31 anti-BACE1 antibody or a control IgG for 10 minutes or 3 hours, after which the antibody was detected by immunostaining Neuronal cultures were prepared from E15.5 dissociated cortical neurons, and cultured for 14 DIV. […] Bound antibody was detected using an Alexa 568-conjugated anti-Human IgG1 secondary antibody (Molecular Probes). […]

B1: YW412.8.31: affinity matured form of YW412.8 anti-BACE1 antibody (antibody, V domains shown)
VH: EVQLVESGGGLVQPGGSLRLSCAASGFTFLGYGIHWVRQAPGKGLEWVGWISPAGGSTDYADSVKGRFTISADTSKNTAYLQMNSLRAEDTAVYYCARGPFSPWVMDYWGQGTLVTVSS
VL: DIQMTQSPSSLSASVGDRVTITCRASQDVSTAVAWYQQKPGKAPKLLIYSASFLYSGVPSRFSGSGSGTDFTLTISSLQPEDFATYYCQQFPTYLPTFGQGTKVEIK
**Q.** Which “reduction of cortical Aβ1-40” value ([1]; 24 or 48 hours) does the source give for B1 here?
**A.** 20%

**Q.** What about the “reduction of plasma Aβ1-40” value ([1]; at 24 hr) of the same molecule?
**A.** 35%

**Q.** What about the “reduction of forebrain Aβ1-40” value ([2]; 30 mg/kg IP, 3 doses every 4 days) of the same molecule?
**A.** no reduction; also recorded: not reduced

**Q.** And the “reduction of forebrain Aβ1-40” value ([2]; 100 mg/kg IP, 3 doses every 4 days)?
**A.** 42%

**Q.** And the “change in forebrain Aβ1-40” value ([2]; 100 mg/kg single IP, 4 hours)?
**A.** no change; also recorded: not reduced

**Q.** What about the “reduction of plasma Aβ1-40” value ([2]; 100 mg/kg single IP, 4 hours) of the same molecule?
**A.** ~50% and 48%

**Q.** And the “reduction of plasma Aβ1-40” value ([2]; 30 and 100 mg/kg IP, 3 doses every 4 days, 4 hours after last dose)?
**A.** ~50% and 50-53%

**Q.** What about the “concentration in CSF” value [3] of the same molecule?
**A.** 0.2-0.3 μg/ml and ~2 nM

**Q.** What about the “peak serum antibody concentration” value ([3]; 15 minutes post administration) of the same molecule?
**A.** ~800 µg/mL

**Q.** And the serum antibody concentration ([3]; 7 days post-dose)?
**A.** 232 µg/mL

**Q.** And the “localization of antibody signal” value ([4]; 1 μM, 10 minutes to 3 hours, 37° C.)?
**A.** localized intracellularly

**Q.** What about the “co-localization with vesicular compartment markers” value ([4]; TfR, VAMP4, LAMP1 co-staining) of the same molecule?
**A.** co-localized with markers for early endosomes and TGN, but not lysosomes
